The test has as its target T1, human EphA2-Fc (human, UniProt P29317 25-534, limits assumed, biotinylated in the capture ELISA (sites not given)).
T1 construct: also called biotinylated human EphA2-Fc; human receptor tyrosine kinase EphA2; not shown: Fc portion; species, isotype and any linker are not described
As to the kind of experiment: EphA2-specific capture ELISA: Fab from E. coli samples captured on anti-human Fab or anti-Fd, detected with biotinylated human EphA2-Fc. As for the experimental part:
Capture ELISA: An EphA2-specific capture ELISA was carried out as follows: briefly, individual wells of a 96-well Maxisorp Immunoplate were coated with 20 or 2000 ng of a goat anti-human Fab antibody (Cappel, Calif.) or of a sheep anti-human Fd (BioDesign, ME), blocked with 3% BSA/PBS for 2 h at 37° C. and then incubated with 75 μl of the various samples (supernatants, periplasmic extracts and whole cell extracts of G5 Fab, 12G3 Fab, irrelevant Fab and variants thereof) for 2 hours at room temperature. 300 ng/well of biotinylated human EphA2-Fc was then added for 1.5 hours at room temperature. This was followed by incubation with a neutravidin-horseradish peroxidase (HRP) conjugate for 40 min at room temperature. HRP activity was detected with tetra methyl benzidine (TMB) substrate and the reaction quenched with 0.2 M H₂SO₄. Plates were read at 450 nm.
On the technique in general: In an ELISA, binding on a coated surface is turned into a signal by an enzyme label.

Numbering of substitutions follows the chain as printed.

T1 sequence (P29317 25-534 limits assumed): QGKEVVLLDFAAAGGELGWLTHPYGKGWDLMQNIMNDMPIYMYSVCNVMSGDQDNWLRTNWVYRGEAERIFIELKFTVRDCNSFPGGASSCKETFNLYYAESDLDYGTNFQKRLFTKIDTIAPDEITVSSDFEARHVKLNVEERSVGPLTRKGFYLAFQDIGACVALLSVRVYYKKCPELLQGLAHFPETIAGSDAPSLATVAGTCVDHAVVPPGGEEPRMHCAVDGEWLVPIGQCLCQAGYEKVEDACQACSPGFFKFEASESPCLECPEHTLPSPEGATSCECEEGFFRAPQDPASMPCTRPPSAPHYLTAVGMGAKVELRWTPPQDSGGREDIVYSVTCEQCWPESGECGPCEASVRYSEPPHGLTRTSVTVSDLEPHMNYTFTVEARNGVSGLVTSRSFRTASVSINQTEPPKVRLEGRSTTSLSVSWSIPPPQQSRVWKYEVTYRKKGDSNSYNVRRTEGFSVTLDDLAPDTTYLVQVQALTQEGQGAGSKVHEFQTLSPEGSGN

B1: G5 Fab (Fab, V domains shown)
VH: QMQLVQSGPEVKKPGTSVKVSCKASGFTFTDYSMNWVRQARGQRLEWIGFIRNKANDYTTEYSASVKGRVTITRDMSTSTAYMELSSLRSEDTAVYYCARYPRYHAMDSWGQGTSVTVSS
VL: DIQMTQSPSSLSASVGDRVTITCRASQSISNNLHWYQQKPGKAPKLLIKYVFQSISGVPSRFSGSGSGTDFTFTISSLQPEDFATYYCQQSNSWPLTFGGGTKVEIK
notes: Fab expressed in E. coli TG1 from an M13-based phage vector and tested as unpurified supernatant, periplasmic extract or whole cell extract; They are kept as one molecule, since the leader is not part of the mature Fab; also called mAb G5; anti-EphA2 Fab
For B1, the binding result was “binds”.

B2: 12G3 Fab (Fab, V domains shown)
VH: B1 VH with T30D, Y104H
VL: B1 VL with V51A, S91A
notes: Fab expressed in E. coli TG1 from an M13-based phage vector and tested as unpurified supernatant, periplasmic extract or whole cell extract; They are kept as one molecule, since the leader is not part of the mature Fab; also called mAb12G3; anti-EphA2 Fab
With B2, the binding result is “binds”.
